Measured values: PMC5934362

Legend:
Test in all cases: ITC; 308 K; 50 mM HEPES pH 7.5, 0.5 mM CaCl2, 0.5 mM TCEP; TrxADocScaA variant in the cell, titrated with 28 injections of 10 uL CohScaB5; single-site model
[1] = biological target: TrxADocScaA H722A (Ruminococcus flavefaciens FD-1)
[2] = biological target: TrxADocScaA K670A (Ruminococcus flavefaciens FD-1)
[3] = biological target: TrxADocScaA N661A (Ruminococcus flavefaciens FD-1)
[4] = biological target: TrxADocScaA N669A (Ruminococcus flavefaciens FD-1)
[5] = biological target: TrxADocScaA V662 + V666 + V721 triple mutant (Ruminococcus flavefaciens FD-1)
[6] = biological target: TrxADocScaA V662 + V666 double mutant (Ruminococcus flavefaciens FD-1)
[7] = biological target: TrxADocScaA V662 + V721 double mutant (Ruminococcus flavefaciens FD-1)
[8] = biological target: TrxADocScaA V662A (Ruminococcus flavefaciens FD-1)
[9] = biological target: TrxADocScaA V666 + V721 double mutant (Ruminococcus flavefaciens FD-1)
[10] = biological target: TrxADocScaA V666A (Ruminococcus flavefaciens FD-1)
[11] = biological target: TrxADocScaA V721A (Ruminococcus flavefaciens FD-1)
[12] = biological target: TrxADocScaA wild type (dockerin of primary scaffoldin ScaA fused to N-terminal thioredoxin A) (Ruminococcus flavefaciens FD-1)
TrxADocScaA wild type (dockerin of primary scaffoldin ScaA fused to N-terminal thioredoxin A) (Ruminococcus flavefaciens FD-1), sequence (main, as listed by the source): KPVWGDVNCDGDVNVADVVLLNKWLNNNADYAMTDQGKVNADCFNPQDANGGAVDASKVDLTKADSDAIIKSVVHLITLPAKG

A Ka [1] of 2.73e+08 M⁻¹, a dH [1] of -72.4 kcal/mol and a stoichiometry N [1] of 1 were found for “RfCohScaB5 (fifth cohesin of adaptor scaffoldin ScaB), expressed alone with a C-terminal hexa-histidine tag (domain or fragment)” in this work. The Ka [2] was 3.67e+08 M⁻¹, the dH [2] was -75.1 kcal/mol and the stoichiometry N [2] was 1.02. The Ka [3] was 2.64e+06 M⁻¹, the dH [3] was -82.5 kcal/mol and the stoichiometry N [3] was 0.98. For the same substance, the Ka [4] was 3.16e+08 M⁻¹, the dH [4] was -73.4 kcal/mol and the stoichiometry N [4] was 1.01. The Ka [5] was 291000 M⁻¹, the dH [5] was -64.8 kcal/mol and the stoichiometry N [5] was 1.04. It also gave a Ka [6] of 1.98e+07 M⁻¹, a dH [6] of -67.5 kcal/mol and a stoichiometry N [6] of 0.98. For the same substance, the Ka [7] was 6.24e+07 M⁻¹, the dH [7] was -64.3 kcal/mol and the stoichiometry N [7] was 1.08. It also gave a Ka [8] of 4.78e+08 M⁻¹, a dH [8] of -68.4 kcal/mol and a stoichiometry N [8] of 1.02. It also gave a Ka [9] of 2.25e+07 M⁻¹, a dH [9] of -56.5 kcal/mol and a stoichiometry N [9] of 1.01. For the same substance, the Ka [10] was 4.07e+08 M⁻¹, the dH [10] was -56.6 kcal/mol and the stoichiometry N [10] was 1.02. The Ka [11] was 5.1e+08 M⁻¹, the dH [11] was -48.7 kcal/mol and the stoichiometry N [11] was 0.95. It also gave a Ka [12] of 4.02e+08 M⁻¹, a dH [12] of -66.7 kcal/mol and a stoichiometry N [12] of 1.01.
